Measured values: PMC5715906 (The Journal of General Physiology, 2017)

Biological target: the molecule itself
Experiment: crystal structure

B1: GLIC E−2′I + I9′A double mutant (receptor)
chain: QDMVSPPPPIADEPLTVNTGIYLIECYSLDDKAETFKVNAFLSLSWKDRRLAFDPVRSGVRVKTYEPEAIWIPEIRFVNVENARDADVVDISVSPDGTVQYLERFSARVLSPLDFRRYPFDSQTLHIYLIVRSVDTRNIVLAVDLEKVGKNDDVFLTGWDIESFTAVVKPANFALEDRLESKLDYQLRISRQYFSYIPNIILPMLFILFISWTAFWSTSYIANVTLVVSTLAAHIAFNILVETNLPKTPYMTYTGAIIFMIYLFYFVAVIEVTVQHYLKVESQPARAASITRASRIAFPVVFLLANIILAFLFFGF
  stoichiometry N: 5
